The values below come from PMC8539926.

In experiment [1] the target is CXCR4 (UniProt P61073).
For experiment [2], the target named is CXCR4 (UniProt P61073). The source holds these as a separate data set.
Experiment [3] has as its target CXCR4 (UniProt P61073). The source holds these as a separate data set.

Chain of UniProt P61073 (P61073 whole entry): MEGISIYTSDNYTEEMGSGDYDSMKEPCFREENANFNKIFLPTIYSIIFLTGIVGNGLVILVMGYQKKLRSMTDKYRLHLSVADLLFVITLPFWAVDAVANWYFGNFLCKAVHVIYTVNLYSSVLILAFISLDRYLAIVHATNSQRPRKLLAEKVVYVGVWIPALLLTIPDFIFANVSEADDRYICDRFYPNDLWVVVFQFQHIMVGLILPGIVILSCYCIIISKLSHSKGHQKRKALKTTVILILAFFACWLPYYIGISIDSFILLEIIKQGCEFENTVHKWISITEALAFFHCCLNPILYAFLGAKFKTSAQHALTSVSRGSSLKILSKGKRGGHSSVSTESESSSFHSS

Substance “[S4V]-[V49A]-CXCL12-GPLS (from UniProt P48061-2 22-89) (ligand)” registered a fold regain of migration potential against compound 4, Jurkat cells (endogenous CXCR4), Transwell assay with CXCR4 [1] of 2 fold.
In the experiment with CXCR4 [1], “[S4V]-[V49A]-CXCL12 (from UniProt P48061-2 22-89) (ligand)” yielded a fold decrease in Jurkat cell migration (endogenous CXCR4) compared with CXCL12 wt, Transwell assay of 11 fold.
Substance “CXCL12 wild type (from UniProt P48061-2 22-89) (ligand)” came in with an Emax of IP accumulation, COS-7 cells with CXCR4-eYFP and chimeric Gαqi protein, normalized to CXCL12 wt with CXCR4 [2] of 100%. For the same substance, the concentration of the best response, Transwell migration of Jurkat cells (endogenous CXCR4), 2 h, dilution series with CXCR4 [3] was 30 nM.
“[S4V]-[V49A]-CXCL12-MMPCS-SBP (from UniProt P48061-2 22-89) (ligand)” came in with a concentration of the migration maximum, Transwell migration of Jurkat cells (endogenous CXCR4), 2 h, dilution series with CXCR4 [3] of 700 nM.
